This note sets out measurements from patent US20130245102, “NOVEL DNA TEMPLATES FOR SMALL RNA PRODUCTION IN MAMMALIAN CELLS” (Research Foundation of the City University of New York, published 2013).

In data set [1] the test system is RNA polymerase III (Homo sapiens). As to conditions: HEK293T WCE transcription; mainly single round.
The test system of data set [2] is TS2126 RNA ligase 1 (Bacteriophage TS2126). The conditions noted are these: 5' phosphate; splintless circularization, 2.5 mM MnCl2, 50 uM ATP, 60 C, 2 h.
Data set [3] concerns RNA polymerase III (Homo sapiens). As to conditions: 90 min IVT from 100 nM coligo; 6 mM MgCl2; abolished by 120 ug/ml alpha-amanitin.
In data set [4] the target is RNA polymerase II (UniProt P04050;P08518;P16370;P20433;P20434;P20435;P34087;P20436;P27999;P22139;P38902;P40 …). Briefly: in vitro transcription processivity, 1 uM template, 37 C. As to conditions: tags: yeast RNAP II from D. Bushnell and R. Kornberg; circular, stem-loop. An excerpt: (§1) Chem. Soc. 117, 7818-7819 (1995)) (FIG. 5b, gel region “a”). As a relative measure of transcriptional processivity, we calculated the ratio of the radioactivity incorporated in the rolling circle transcripts (FIG. 5b, gel region “a” in lanes 3, 6, 9) to the sum of all shorter transcripts (gel region “b”). Lower a/b ratios indicate lower processivity. […] Thus, the ability to initiate promoterless transcription on coligo templates appears to have been retained during RNAP evolution, while the processivity needed for RCT appears to have been lost.
(§2) In vitro transcription (IVT). IVT using WCE, uniform labeling with [α-³²P]-UTP and the linear or circular (coligo) templates was performed as follows. A typical 20 μl reaction contained 25 μg total WCE protein, 20 units RNase inhibitor (Promega) 1.25 mM each ATP, CTP, GTP, 0.2 mM UTP, (except FIG. 5b, which contained 1.25 mM each NTP), ˜2 μCi [α-³²P]-UTP, 40 mM Tris-HCl pH 7.9, 6 mM MgCl₂, 10 mM DTT, 2 mM spermidine, 100 μM NaCl); 100 nM template unless otherwise indicated. IVT using E. coli RNA polymerase (USB) was carried out in 40 mM Tris-HCl, pH 8.0, 10 mM MgCl₂, 5 mM DTT, 50 mM KCl, 50 μg/ml BSA), 1 μM coligo template, 1.25 mM NTP, ˜2 μCi [α-³²P]-UTP, 1 unit/μl RNAse inhibitor. […] Images and quantitation were performed using MD ImageQuant software. […]

The target of data set [5] is RNA polymerase (Escherichia coli, UniProt P0A7Z4;P0A8V2;P0A8T7;P0A800 P0A7Z4:1-329,P0A8V2:1-1342,P0A8T7:1-1407,P0A800:2-91). Briefly: in vitro transcription processivity, 10 mM MgCl2, 37 C. As to conditions: tags: USB; chain copies: 2,1,1,1; circular, stem-loop.
RNA polymerase, sequence (P0A7Z4 whole entry, chain 1 of 4): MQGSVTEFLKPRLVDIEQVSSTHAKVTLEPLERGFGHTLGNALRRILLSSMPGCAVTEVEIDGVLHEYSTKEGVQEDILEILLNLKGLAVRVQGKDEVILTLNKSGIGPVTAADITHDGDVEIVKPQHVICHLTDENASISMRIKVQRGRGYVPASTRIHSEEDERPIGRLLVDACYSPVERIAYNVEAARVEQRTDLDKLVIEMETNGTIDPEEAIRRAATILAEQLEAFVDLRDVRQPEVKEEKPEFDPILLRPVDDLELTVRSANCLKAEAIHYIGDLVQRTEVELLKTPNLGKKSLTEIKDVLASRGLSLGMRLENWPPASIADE
RNA polymerase, sequence (P0A8V2 whole entry, chain 2 of 4): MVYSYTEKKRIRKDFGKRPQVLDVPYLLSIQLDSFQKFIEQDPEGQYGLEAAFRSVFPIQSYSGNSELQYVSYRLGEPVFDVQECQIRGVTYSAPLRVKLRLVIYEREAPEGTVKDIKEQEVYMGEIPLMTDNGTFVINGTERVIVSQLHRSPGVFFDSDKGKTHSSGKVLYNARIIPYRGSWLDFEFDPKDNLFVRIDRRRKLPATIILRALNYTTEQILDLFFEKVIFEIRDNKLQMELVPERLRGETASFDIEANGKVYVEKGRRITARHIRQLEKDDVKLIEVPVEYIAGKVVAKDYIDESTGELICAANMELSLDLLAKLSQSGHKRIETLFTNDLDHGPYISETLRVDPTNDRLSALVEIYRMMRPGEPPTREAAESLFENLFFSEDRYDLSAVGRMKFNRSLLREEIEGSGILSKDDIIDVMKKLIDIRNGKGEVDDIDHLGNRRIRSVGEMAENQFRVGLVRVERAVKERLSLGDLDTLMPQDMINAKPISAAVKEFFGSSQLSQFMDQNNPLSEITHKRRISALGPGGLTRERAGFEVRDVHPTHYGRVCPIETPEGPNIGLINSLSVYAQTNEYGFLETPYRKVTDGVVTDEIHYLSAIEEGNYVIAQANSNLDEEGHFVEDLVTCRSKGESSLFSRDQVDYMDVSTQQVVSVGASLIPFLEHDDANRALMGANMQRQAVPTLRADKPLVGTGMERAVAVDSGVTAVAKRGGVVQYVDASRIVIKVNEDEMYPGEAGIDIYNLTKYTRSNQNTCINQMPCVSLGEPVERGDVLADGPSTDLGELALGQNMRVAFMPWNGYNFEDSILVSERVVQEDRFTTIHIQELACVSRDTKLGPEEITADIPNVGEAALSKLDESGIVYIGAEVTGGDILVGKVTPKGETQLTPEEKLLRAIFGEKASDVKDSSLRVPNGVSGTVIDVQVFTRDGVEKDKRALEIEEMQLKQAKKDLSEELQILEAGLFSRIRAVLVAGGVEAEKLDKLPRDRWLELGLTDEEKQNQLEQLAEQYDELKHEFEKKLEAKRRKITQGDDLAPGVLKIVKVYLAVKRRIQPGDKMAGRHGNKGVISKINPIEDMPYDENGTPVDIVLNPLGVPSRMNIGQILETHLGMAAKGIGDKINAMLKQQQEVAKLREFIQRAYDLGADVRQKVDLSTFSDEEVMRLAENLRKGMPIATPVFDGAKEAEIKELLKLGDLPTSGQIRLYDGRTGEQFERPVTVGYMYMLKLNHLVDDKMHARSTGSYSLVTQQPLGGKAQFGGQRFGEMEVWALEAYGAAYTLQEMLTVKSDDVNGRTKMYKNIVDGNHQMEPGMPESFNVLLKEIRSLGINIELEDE
RNA polymerase, sequence (P0A8T7 whole entry, chain 3 of 4): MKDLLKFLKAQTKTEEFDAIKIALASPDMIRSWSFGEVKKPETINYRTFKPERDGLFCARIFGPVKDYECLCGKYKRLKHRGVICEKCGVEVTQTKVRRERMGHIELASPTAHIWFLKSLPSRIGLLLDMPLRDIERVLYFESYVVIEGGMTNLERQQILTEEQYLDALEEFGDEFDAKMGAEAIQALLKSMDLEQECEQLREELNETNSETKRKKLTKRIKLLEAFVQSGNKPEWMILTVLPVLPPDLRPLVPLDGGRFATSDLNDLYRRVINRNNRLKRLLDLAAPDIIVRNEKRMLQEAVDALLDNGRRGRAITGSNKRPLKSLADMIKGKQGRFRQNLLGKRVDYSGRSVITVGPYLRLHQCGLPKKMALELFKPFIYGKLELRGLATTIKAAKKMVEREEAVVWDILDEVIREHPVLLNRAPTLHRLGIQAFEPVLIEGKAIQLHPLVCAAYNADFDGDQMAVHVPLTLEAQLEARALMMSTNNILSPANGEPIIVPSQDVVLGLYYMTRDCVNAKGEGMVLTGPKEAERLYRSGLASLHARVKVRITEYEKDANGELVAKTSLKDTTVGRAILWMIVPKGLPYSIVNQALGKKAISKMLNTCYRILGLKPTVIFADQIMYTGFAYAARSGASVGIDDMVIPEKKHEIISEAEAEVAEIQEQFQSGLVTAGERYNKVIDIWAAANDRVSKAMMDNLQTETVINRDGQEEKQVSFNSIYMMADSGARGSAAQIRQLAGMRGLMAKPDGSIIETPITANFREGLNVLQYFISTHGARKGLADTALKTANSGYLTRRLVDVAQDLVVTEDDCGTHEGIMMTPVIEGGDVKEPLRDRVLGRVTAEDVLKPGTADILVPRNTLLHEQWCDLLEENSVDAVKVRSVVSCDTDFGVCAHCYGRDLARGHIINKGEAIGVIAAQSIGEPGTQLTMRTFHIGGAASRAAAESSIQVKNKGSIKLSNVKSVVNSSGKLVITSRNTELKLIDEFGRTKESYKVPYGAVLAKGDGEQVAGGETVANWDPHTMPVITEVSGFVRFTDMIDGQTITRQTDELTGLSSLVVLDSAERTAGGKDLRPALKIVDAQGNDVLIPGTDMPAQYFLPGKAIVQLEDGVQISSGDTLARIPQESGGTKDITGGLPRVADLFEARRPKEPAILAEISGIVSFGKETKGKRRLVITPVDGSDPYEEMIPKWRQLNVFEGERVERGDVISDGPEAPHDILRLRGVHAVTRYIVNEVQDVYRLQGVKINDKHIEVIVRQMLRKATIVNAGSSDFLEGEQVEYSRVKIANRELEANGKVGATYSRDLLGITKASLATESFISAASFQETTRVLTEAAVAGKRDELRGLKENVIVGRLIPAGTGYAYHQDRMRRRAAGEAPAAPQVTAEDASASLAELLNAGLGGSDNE
RNA polymerase, sequence (P0A800 2-91, chain 4 of 4): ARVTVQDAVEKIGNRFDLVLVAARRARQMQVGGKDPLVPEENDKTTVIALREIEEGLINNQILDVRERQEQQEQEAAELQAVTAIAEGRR
From the text: as §1, §2

Consider “TTGCCTAGCAGTAGCTATTTAGTGTGATAATGGCGTTTGATAGTTTAGACACAAACACCATTGTCACACTCCACAGCTCTGCTAAGGAA [coligo 122]”, for which the binding signal (RCT/short transcript ratio) in data set [1] is 0.01. With “CTCAGATCTGCCTGCAACTATGCAAAACTAACAGAGGACTGCAAACAAAAACTAGAAGGAAATAGCAGGCCACCATCAGTTTTGCATAGATTTGCACAACGGCAGAGAGCTCCCAGG [linear 19aTAR]”, in data set [2], the activity (% cyclization) is 73. Turning to “CTCAGATCTGCCTGCAACTATGCAAAACTAACAGAGGACTGCAAACAAAAACTAGAAGGAAATAGCAGGCCACCATCAGTTTTGCATAGATTTGCACAACGGCAGAGAGCTCCCAGG [coligo 19aTAR (19am)]”, in data set [3], the activity (nM transcript) is 0.6.

B1: coligo 122 (structured_DNA)
DNA: TTGCCTAGCAGTAGCTATTTAGTGTGATAATGGCGTTTGATAGTTTAGACACAAACACCATTGTCACACTCCACAGCTCTGCTAAGGAA
With B1, the “transcriptional processivity (rolling-circle/short transcript ratio)” value in data set [4] was 0.3 RCT/short transcript ratio. In addition, the binding signal in data set [5] is 2.3 RCT/short transcript ratio.
